From the Human Domainome abundance scans (Beltran et al. 2025)

B1: Homeobox protein SIX3, residues 212 to 262; numbered along this chain, O95343 (parent)
chain: CFKERTRSLLREWYLQDPYPNPSKKRELAQATGLTPTQVGNWFKNRRQRDR

Variants of: B1
Experiment: abundance fitness (aPCA) (normalised: wild type 0, dead -1); higher = more abundant; growth selection in yeast, the domain comes from the species named
Settings: Homo sapiens

Abundance fitness, by site and new letter:
P22: C -0.359 | M -0.266 | R -0.362 | Y -0.102 | W 0.125 | D -0.195 | I -0.014 | A -0.108 | E 0.055 | Q -0.212 | N -0.232 | S -0.107 | L 0.156 | H -0.717 | K -0.445 | V 0.03
L15: C 0.756 | A 0.358 | R 0.145 | M -0.309 | S -0.568 | W -0.551 | Q 0.08 | V -0.22 | D 0.114 | E -0.091
N21: T 0.224 | R -0.351 | V -0.14 | S 0.078 | D 0.322 | L -0.375 | G -0.042 | W -0.613 | F -0.499 | P 0.027 | A -0.159 | M -0.277 | I -0.433 | K 0.23 | Q -0.553 | H -0.171 | Y -0.873
W13: Y -0.007
Y19: V -0.474 | M -0.292 | F -0.089 | T -0.278 | A -0.372 | N -0.313 | P -0.85 | C -0.308 | D -0.368 | R -0.184 | G -0.849 | W -0.374 | L -0.352 | H -0.337 | K -0.095 | E -0.591 | S -0.514 | Q -0.426
Q16: R -0.076 | A -0.106 | W -0.327 | N -0.092 | E -0.302 | T -0.249 | I 0.251 | P -0.712 | M 0.13 | K -0.212 | H -0.173 | F -0.109 | G -0.564 | Y -0.382 | S -0.285 | D -0.601
Y14: C -0.822 | L -0.828 | Q -0.834 | R -0.849 | K -0.81 | A -0.896 | M -0.891 | N -0.734 | I -0.746 | H -0.951 | G -0.833 | S -0.667 | W -0.711 | T -0.946 | P -0.672 | D -1.14 | E -0.893 | F -0.294
D17: I -0.927 | K -0.665 | R -0.907 | T -0.844 | Y -1 | N -0.599 | A -0.89 | S -0.627 | M -0.81 | E -0.204 | H -1.04 | F -0.82 | G -0.834 | V -0.878 | P -0.753 | C -0.78 | Q -0.814
S23: P -0.341 | W -0.729 | Q -0.022 | Y -0.761 | D 0.175 | N -0.249 | M -0.277 | R -0.551 | T -0.005 | G -0.079 | K -0.512 | V -0.094 | E 0.002 | A 0.072 | C -0.166 | H -0.356 | L -0.342 | F -0.343
P20: D -0.845 | M -0.663 | G -0.764 | L -0.339 | Y -0.707 | R -0.819 | A -0.425 | T -0.838 | Q -0.812 | K -0.977 | V -0.477 | F -0.799 | S -1.05 | E -0.756 | W -1.13 | N -0.912 | C -0.486
P18: A -0.226 | L -0.903 | V -0.687 | R -0.182 | H -0.028 | M -0.501 | G -0.906 | E -0.717 | F -0.672 | I -0.487 | C -0.032 | S -0.474 | K -0.136 | T -0.629 | Q -0.286
K24: E -0.364 | A 0.11 | F -0.672 | C -0.399
